One molecule from US20210087288A1 can be followed below.

A word on the Kd: it is the free concentration of one partner at which half of the binding sites on the other are occupied at equilibrium, for simple one-to-one binding. The low end stands for tighter binding, the high end for weaker binding.

The target in test [1] is Cyno TfR extracellular domain (analogous ecd construct) (cynomolgus monkey). In words: SPR, bispecific antibody. In general terms: SPR reads the build-up and loss of mass on a sensor chip optically.
In test [2] the target is Human TfR extracellular domain (ecd) containing an N-terminal His tag (human) (UniProt P02786). The experiment in a line: SPR, bispecific antibody.
Human TfR extracellular domain (ecd) containing an N-terminal His tag (human), sequence (P02786 89-760 G142S): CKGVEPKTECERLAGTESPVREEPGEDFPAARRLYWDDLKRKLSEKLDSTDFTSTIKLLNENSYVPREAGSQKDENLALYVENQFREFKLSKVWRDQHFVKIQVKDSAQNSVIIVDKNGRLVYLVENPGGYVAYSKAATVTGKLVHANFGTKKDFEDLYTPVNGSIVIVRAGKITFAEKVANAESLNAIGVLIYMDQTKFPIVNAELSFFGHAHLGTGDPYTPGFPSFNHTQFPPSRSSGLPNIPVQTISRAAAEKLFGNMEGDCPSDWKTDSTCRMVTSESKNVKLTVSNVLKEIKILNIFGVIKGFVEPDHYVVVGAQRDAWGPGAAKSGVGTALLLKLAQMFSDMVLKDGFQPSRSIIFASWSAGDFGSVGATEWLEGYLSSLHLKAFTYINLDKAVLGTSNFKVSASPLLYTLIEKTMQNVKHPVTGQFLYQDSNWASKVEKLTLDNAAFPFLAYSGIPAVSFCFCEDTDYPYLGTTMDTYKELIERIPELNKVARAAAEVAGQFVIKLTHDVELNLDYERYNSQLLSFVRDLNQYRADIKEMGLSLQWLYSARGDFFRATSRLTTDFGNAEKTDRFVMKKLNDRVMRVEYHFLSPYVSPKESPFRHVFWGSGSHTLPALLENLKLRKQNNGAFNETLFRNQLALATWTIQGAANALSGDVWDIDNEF

Cyno TfR extracellular domain (analogous ecd construct) (cynomolgus monkey), sequence (Q5RDH6 other isoform, or with tags, fused parts or gaps): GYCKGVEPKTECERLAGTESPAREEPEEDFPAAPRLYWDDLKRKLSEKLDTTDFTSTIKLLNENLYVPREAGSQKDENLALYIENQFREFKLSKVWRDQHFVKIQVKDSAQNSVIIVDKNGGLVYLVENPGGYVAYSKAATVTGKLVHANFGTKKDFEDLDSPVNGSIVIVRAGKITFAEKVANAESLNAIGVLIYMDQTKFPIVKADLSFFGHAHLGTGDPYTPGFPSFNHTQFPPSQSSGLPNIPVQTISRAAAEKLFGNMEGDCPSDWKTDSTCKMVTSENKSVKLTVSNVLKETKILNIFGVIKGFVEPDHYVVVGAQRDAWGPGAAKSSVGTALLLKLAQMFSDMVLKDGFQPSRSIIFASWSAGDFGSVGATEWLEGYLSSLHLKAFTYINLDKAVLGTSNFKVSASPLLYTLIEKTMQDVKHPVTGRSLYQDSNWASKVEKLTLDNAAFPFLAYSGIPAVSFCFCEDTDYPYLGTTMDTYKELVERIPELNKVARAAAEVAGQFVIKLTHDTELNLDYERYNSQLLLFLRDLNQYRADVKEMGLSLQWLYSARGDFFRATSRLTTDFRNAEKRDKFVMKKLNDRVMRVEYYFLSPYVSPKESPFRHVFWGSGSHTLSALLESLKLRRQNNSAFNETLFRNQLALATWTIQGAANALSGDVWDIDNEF

B1: Anti-TfR^53A/BACE1 bispecific antibody, human IgG1 N297G (bispecific antibody, part only; not given: anti-BACE1 half-antibody, V domains shown, not shown: another chain or arm of the molecule; a dimerising Fc or GST; small tags and cut ends)
VH: EVQLVQSGAEVKKPGASVKVSCKASGYTFTSYWMHWVRQAPGQRLEWIGEINPANGRTNYIEKFKSRATLTVDKSASTAYMELSSLRSEDTAVYYCARGTRAYHYWGQGTMVTVSS
VL: DIQMTQSPSSLSASVGDRVTITCRASDNLYSNLAWYQQKPGKSPKLLVYDATNLADGVPSRFSGSGSGTDYTLTISSLQPEDFATYYCQHFWGTPLTFGQGTKVEIK
For the molecule B1, the Kd in test [1] amounted to 143 nM; in test [2], 24 nM.
